Experimental data as given in patent publication US20210388087A1 (Chugai, published 2021).
Where a chain is given by its changes, count along the chain named. Names may count otherwise. Blank lines part the entries; values can stand above or below the binder they belong to.

Biological target: T1, Human CD137 ECD (human)
T1 construct: also called 4-1BB
Experiment: single mutant vs template dBBDu183H

T1 sequence (chain, as listed by the source limits assumed): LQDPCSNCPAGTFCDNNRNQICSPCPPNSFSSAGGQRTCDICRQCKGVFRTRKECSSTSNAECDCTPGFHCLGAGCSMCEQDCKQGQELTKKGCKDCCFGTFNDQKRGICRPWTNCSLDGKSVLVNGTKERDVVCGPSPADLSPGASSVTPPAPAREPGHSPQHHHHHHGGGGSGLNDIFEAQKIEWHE

B3: H183/L072 VH G26L (antibody, name in Kabat numbering, V domains shown)
VH: QVQLVESGGGLVQPGRSLRLSCAASLFTFSNAWMHWVRQAPGKGLEWVAQIKDKGNAYAAYYAPSVKGRFTISRDDSKNSIYLQMNSLKTEDTAVYYCHYVHYASASTVLPAFGVDAWGQGTTVTVSS
VL: DIVMTQSPLSLPVTPGEPASISCQASQELVHMNRNTYLHWYQQKPGQAPRLLIYKVSNRFPGVPDRFSGSGSGTDFTLKISRVEAEDVGVYYCAQGTSVPFTFGQGTKLEIK
fold change of affinity: 0.3 fold

B6: H183/L072 VH F27P (antibody, name in Kabat numbering, V domains shown)
VH: B3 VH with L26G, F27P
VL: B3 VL
fold change of affinity: 0.3 fold

B8: H183/L072 VH F27Q (antibody, name in Kabat numbering, V domains shown)
VH: B3 VH with L26G, F27Q
VL: B3 VL
fold change of affinity: 0.2 fold

B11: H183/L072 VH F27K (antibody, name in Kabat numbering, V domains shown)
VH: B3 VH with L26G, F27K
VL: B3 VL
fold change of affinity: 0.2 fold

B12: H183/L072 VH D101I (antibody, name in Kabat numbering, V domains shown)
VH: B3 VH with L26G, D116I
VL: B3 VL
fold change of affinity: 0 fold

B17: H183/L072 VH F27L (antibody, name in Kabat numbering, V domains shown)
VH: B3 VH with L26G, F27L
VL: B3 VL
fold change of affinity: 0.5 fold

B18: H183/L072 VH F27T (antibody, name in Kabat numbering, V domains shown)
VH: B3 VH with L26G, F27T
VL: B3 VL
fold change of affinity: 0.3 fold

B19: H183/L072 VH F29M (antibody, name in Kabat numbering, V domains shown)
VH: B3 VH with L26G, F29M
VL: B3 VL
fold change of affinity: 0.3 fold

B21: H183/L072 VH F27N (antibody, name in Kabat numbering, V domains shown)
VH: B3 VH with L26G, F27N
VL: B3 VL
fold change of affinity: 0.3 fold

B22: H183/L072 VH D101L (antibody, name in Kabat numbering, V domains shown)
VH: B3 VH with L26G, D116L
VL: B3 VL
fold change of affinity: 0 fold

B24: H183/L072 VH F27H (antibody, name in Kabat numbering, V domains shown)
VH: B3 VH with L26G, F27H
VL: B3 VL
fold change of affinity: 0.3 fold

B25: H183/L072 VH F27E (antibody, name in Kabat numbering, V domains shown)
VH: B3 VH with L26G, F27E
VL: B3 VL
fold change of affinity: 0.2 fold

B28: H183/L072 VH A102M (antibody, name in Kabat numbering, V domains shown)
VH: B3 VH with L26G, A117M
VL: B3 VL
fold change of affinity: 0 fold

B29: H183/L072 VH F27S (antibody, name in Kabat numbering, V domains shown)
VH: B3 VH with L26G, F27S
VL: B3 VL
fold change of affinity: 0.3 fold

B30: H183/L072 VH G26H (antibody, name in Kabat numbering, V domains shown)
VH: B3 VH with L26H
VL: B3 VL
fold change of affinity: 0.4 fold

B31: H183/L072 VH F27G (antibody, name in Kabat numbering, V domains shown)
VH: B3 VH with L26G, F27G
VL: B3 VL
fold change of affinity: 0.4 fold

B35: H183/L072 VH F29I (antibody, name in Kabat numbering, V domains shown)
VH: B3 VH with L26G, F29I
VL: B3 VL
fold change of affinity: 0.3 fold

B37: H183/L072 VH F100gA (antibody, name in Kabat numbering, V domains shown)
VH: B3 VH with L26G, F113A
VL: B3 VL
fold change of affinity: 0.5 fold

B38: H183/L072 VH F27Y (antibody, name in Kabat numbering, V domains shown)
VH: B3 VH with L26G, F27Y
VL: B3 VL
fold change of affinity: 0.4 fold

B39: H183/L072 VH F29Y (antibody, name in Kabat numbering, V domains shown)
VH: B3 VH with L26G, F29Y
VL: B3 VL
fold change of affinity: 0.2 fold

B42: H183/L072 VH G26I (antibody, name in Kabat numbering, V domains shown)
VH: B3 VH with L26I
VL: B3 VL
fold change of affinity: 0.3 fold

B45: H183/L072 VH F100gL (antibody, name in Kabat numbering, V domains shown)
VH: B3 VH with L26G, F113L
VL: B3 VL
fold change of affinity: 1.2 fold

B46: H183/L072 VH F29L (antibody, name in Kabat numbering, V domains shown)
VH: B3 VH with L26G, F29L
VL: B3 VL
fold change of affinity: 0.3 fold

Results, then the binder that gave them:

fold change of affinity: 0.3 fold
B1: H183/L072 VH A100fP (antibody, name in Kabat numbering, V domains shown)
VH: B3 VH with L26G, A112P
VL: B3 VL

fold change of affinity: 0 fold
B2: H183/L072 VH D52aY (antibody, name in Kabat numbering, V domains shown)
VH: B3 VH with L26G, D53Y
VL: B3 VL

fold change of affinity: 0.4 fold
B4: H183/L072 VH G26Q (antibody, name in Kabat numbering, V domains shown)
VH: B3 VH with L26Q
VL: B3 VL

fold change of affinity: 0.5 fold
B5: H183/L072 VH F27D (antibody, name in Kabat numbering, V domains shown)
VH: B3 VH with L26G, F27D
VL: B3 VL

fold change of affinity: 0.1 fold
B7: H183/L072 VH G26P (antibody, name in Kabat numbering, V domains shown)
VH: B3 VH with L26P
VL: B3 VL

fold change of affinity: 2 fold
B9: H183/L072 VH D101A (antibody, name in Kabat numbering, V domains shown)
VH: B3 VH with L26G, D116A
VL: B3 VL

fold change of affinity: 0.2 fold
B10: H183/L072 VH F27R (antibody, name in Kabat numbering, V domains shown)
VH: B3 VH with L26G, F27R
VL: B3 VL

fold change of affinity: 0 fold
B13: H183/L072 VH D101M (antibody, name in Kabat numbering, V domains shown)
VH: B3 VH with L26G, D116M
VL: B3 VL

fold change of affinity: 0.1 fold
B14: H183/L072 VH F29V (antibody, name in Kabat numbering, V domains shown)
VH: B3 VH with L26G, F29V
VL: B3 VL

fold change of affinity: 1 fold
B15: H183/L072 VH F100gI (antibody, name in Kabat numbering, V domains shown)
VH: B3 VH with L26G, F113I
VL: B3 VL

fold change of affinity: 0.5 fold
B16: H183/L072 VH G26N (antibody, name in Kabat numbering, V domains shown)
VH: B3 VH with L26N
VL: B3 VL

fold change of affinity: 0.1 fold
B20: H183/L072 VH F29W (antibody, name in Kabat numbering, V domains shown)
VH: B3 VH with L26G, F29W
VL: B3 VL

fold change of affinity: 0.3 fold
B23: H183/L072 VH F27V (antibody, name in Kabat numbering, V domains shown)
VH: B3 VH with L26G, F27V
VL: B3 VL

fold change of affinity: 0.9 fold
B26: H183/L072 VH F27M (antibody, name in Kabat numbering, V domains shown)
VH: B3 VH with L26G, F27M
VL: B3 VL

fold change of affinity: 0.3 fold
B27: H183/L072 VH G26F (antibody, name in Kabat numbering, V domains shown)
VH: B3 VH with L26F
VL: B3 VL

fold change of affinity: 0.5 fold
B32: H183/L072 VH G26E (antibody, name in Kabat numbering, V domains shown)
VH: B3 VH with L26E
VL: B3 VL

fold change of affinity: 0.4 fold
B33: H183/L072 VH G26A (antibody, name in Kabat numbering, V domains shown)
VH: B3 VH with L26A
VL: B3 VL

fold change of affinity: 0.1 fold
B34: H183/L072 VH F29P (antibody, name in Kabat numbering, V domains shown)
VH: B3 VH with L26G, F29P
VL: B3 VL

fold change of affinity: 0.1 fold
B36: H183/L072 VH F29T (antibody, name in Kabat numbering, V domains shown)
VH: B3 VH with L26G, F29T
VL: B3 VL

fold change of affinity: 0 fold
B40: H183/L072 VH A102I (antibody, name in Kabat numbering, V domains shown)
VH: B3 VH with L26G, A117I
VL: B3 VL

fold change of affinity: 0.9 fold
B41: H183/L072 VH A102L (antibody, name in Kabat numbering, V domains shown)
VH: B3 VH with L26G, A117L
VL: B3 VL

fold change of affinity: 0.8 fold
B43: H183/L072 VH G26D (antibody, name in Kabat numbering, V domains shown)
VH: B3 VH with L26D
VL: B3 VL

fold change of affinity: 0.6 fold
B44: H183/L072 VH F100gM (antibody, name in Kabat numbering, V domains shown)
VH: B3 VH with L26G, F113M
VL: B3 VL

fold change of affinity: 0.3 fold
B47: H183/L072 VH F27W (antibody, name in Kabat numbering, V domains shown)
VH: B3 VH with L26G, F27W
VL: B3 VL
